± gives the standard deviation of the averaged measurements.
B1: library; a variant is named by its letters at N, in order (parent)
chain: GCUGUCACCGGUGCUUGGUACGUUAUAUUCAGCCGGUCUGAUGAGUCUNNNNNNAGACGAAACAGC

Key:
(6R,S)-folinic acid [1] = variants of: B1; test: normalized RNA/DNA level without ligand (relative to sTRSVctl = 100) (log10 (% of sTRSVctl)); HEK293T overexpressing SLC46A1; higher = less ribozyme self-cleavage, higher mRNA level; conditions: without (6R,S)-folinic acid; ligand present: no
How it was run: (§1)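 Ribozyme switch library plasmids with mCherry reporters (eGFP in certain ligand experiments) went into HEK293T cells at 4 µg per 6-well well. Where ligand was used, it was applied 1 h before transfection, and total RNA was extracted with EDTA 72 h later for reverse transcription, amplification, barcoding and sequencing. RNA level is the RNA-to-DNA read ratio normalized to a spiked-in non-cleaving sequence or to the leading sequences, then scaled and log-transformed. Scaling was ×100 with log10, the leading set comprised 25 sequences, and the cutoff was ≥100 DNA reads.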

(6R,S)-folinic acid [2] = variants of: B1; test: normalized RNA/DNA level with ligand (relative to sTRSVctl = 100) (log10 (% of sTRSVctl)); HEK293T overexpressing SLC46A1; ligand concentration (+) RNA-Seq: 6 mM; higher = less ribozyme self-cleavage, higher mRNA level; conditions: with (6R,S)-folinic acid; ligand present: yes
How it was run: as §1

| Variant | normalized RNA/DNA level without ligand (log10) ((6R,S)-folinic acid [1]) | normalized RNA/DNA level with ligand (log10) ((6R,S)-folinic acid [2]) |
| --- | --- | --- |
| CACACG | 2.0281 ± 0.00028 | 2.04 ± 0.036 |
| GACACG | 1.971 ± 0.019 | 1.98 ± 0.034 |
| GACACU | 2.032 ± 0.015 | 2.046 ± 0.018 |
| UACACU | 2.017 ± 0.0061 | 2.03 ± 0.037 |
| AACACU | 2 ± 0.032 | 2 ± 0.043 |
| CACAGA | 2.03 ± 0.015 | 2.01 ± 0.022 |
| CACAGC | 1.978 ± 0.0044 | 1.96 ± 0.021 |
| GACAGC | 2.002 ± 0.0097 | 2.03 ± 0.046 |
| UACAGC | 1.991 ± 0.0074 | 2.02 ± 0.05 |
| AACAGC | 2.0178 ± 0.00095 | 2.02 ± 0.022 |
| CACAGG | 1.95 ± 0.026 | 2 ± 0.048 |
| CACAGU | 1.999 ± 0.017 | 2 ± 0.077 |
| GACAGU | 1.99 ± 0.025 | 2 ± 0.053 |
| CACAUC | 2.035 ± 0.0021 | 2.04 ± 0.025 |
| GACAUC | 2.05 ± 0.034 | 2.04 ± 0.082 |
| UACAUC | 2.0657 ± 0.0019 | 2.04 ± 0.032 |
| CACAUG | 2.02 ± 0.01 | 2.018 ± 0.017 |
| GACAUG | 1.925 ± 0.0021 | 1.994 ± 0.009 |
| AACAUU | 2.03 ± 0.019 | 2.02 ± 0.022 |
| CACAUU | 2.02 ± 0.026 | 2.02 ± 0.059 |
| UACAUU | 2.005 ± 0.0053 | 1.99 ± 0.042 |
| CACCAA | 1.97 ± 0.016 | 1.99 ± 0.022 |
| UACCAA | 1.966 ± 0.0066 | 1.99 ± 0.02 |
| AACCAC | 2.007 ± 0.0059 | 1.963 ± 0.015 |

| Variant | normalized RNA/DNA level without ligand (log10) ((6R,S)-folinic acid [1]) | normalized RNA/DNA level with ligand (log10) ((6R,S)-folinic acid [2]) |
| --- | --- | --- |
| CACCAC | 1.998 ± 0.019 | 1.99 ± 0.026 |
| GACCAC | 2.001 ± 0.012 | 2.002 ± 0.0054 |
| CACCAG | 1.977 ± 0.019 | 2 ± 0.036 |
| GACCAG | 2.004 ± 0.013 | 2.022 ± 0.012 |
| UACCAG | 1.862 ± 0.011 | 1.96 ± 0.025 |
| GACCAU | 2.017 ± 0.0083 | 2.01 ± 0.027 |
| UACCAU | 1.9686 ± 0.001 | 2 ± 0.038 |
| AACCCA | 2.033 ± 0.016 | 2.03 ± 0.022 |
| CACCCA | 2.011 ± 0.017 | 2.01 ± 0.059 |
| GACCCA | 2.018 ± 0.0089 | 2 ± 0.04 |
| UACCCA | 2.0351 ± 0.0019 | 2.02 ± 0.034 |
| CACCCC | 2.031 ± 0.019 | 2.01 ± 0.022 |
| GACCCC | 2.017 ± 0.0088 | 2 ± 0.045 |
| UACCCC | 2.03 ± 0.024 | 2.022 ± 0.017 |
| AACCCG | 1.99 ± 0.0042 | 2.02 ± 0.044 |
| CACCCG | 2.018 ± 0.0098 | 2.01 ± 0.031 |
| GACCCG | 2.031 ± 0.0022 | 2 ± 0.06 |
| AACCCU | 2.047 ± 0.013 | 2.04 ± 0.036 |
| CACCCU | 2.059 ± 0.0058 | 2.04 ± 0.012 |
| UACCCU | 2.032 ± 0.0098 | 2 ± 0.041 |
| AACCGA | 1.998 ± 0.014 | 1.99 ± 0.051 |
| CACCGA | 2.021 ± 0.0036 | 2.04 ± 0.04 |
| GACCGA | 2.09 ± 0.0085 | 2.033 ± 0.011 |
| AACCGC | 2.04 ± 0.029 | 2.013 ± 0.019 |

| Variant | normalized RNA/DNA level without ligand (log10) ((6R,S)-folinic acid [1]) | normalized RNA/DNA level with ligand (log10) ((6R,S)-folinic acid [2]) |
| --- | --- | --- |
| CACCGC | 2.047 ± 0.0053 | 2.04 ± 0.034 |
| GACCGC | 2.0652 ± 0.00035 | 2.018 ± 0.011 |
| CACCGG | 1.9715 ± 0.00014 | 2.01 ± 0.0069 |
| GACCGG | 2.08 ± 0.053 | 2.0517 ± 0.0019 |
| AACCGU | 1.9935 ± 0.00042 | 2 ± 0.032 |
| CACCGU | 2.02 ± 0.023 | 2.03 ± 0.033 |
| GACCGU | 2.03 ± 0.029 | 2.01 ± 0.023 |
| CACCUA | 2.024 ± 0.005 | 2.06 ± 0.038 |
| GACCUA | 2.05 ± 0.0099 | 2.05 ± 0.035 |
| UACCUA | 2.0242 ± 0.0004 | 2.069 ± 0.019 |
| AACCUC | 2.1092 ± 0.0019 | 2.07 ± 0.052 |
| CACCUC | 2.02 ± 0.021 | 1.99 ± 0.027 |
| GACCUC | 2.06 ± 0.0084 | 2.044 ± 0.0024 |
| AACCUG | 1.972 ± 0.0045 | 2.02 ± 0.039 |
| CACCUG | 2.04 ± 0.023 | 2.02 ± 0.022 |
| GACCUG | 2.06 ± 0.023 | 2.03 ± 0.027 |
| CACCUU | 2.027 ± 0.0059 | 2.01 ± 0.025 |
| GACCUU | 2.079 ± 0.013 | 2.04 ± 0.028 |
| UACCUU | 2.02 ± 0.0067 | 2.046 ± 0.014 |
| CACGAA | 1.956 ± 0.0025 | 1.94 ± 0.039 |
| UACGAA | 1.913 ± 0.0081 | 1.99 ± 0.03 |
| AACGAC | 2.017 ± 0.013 | 1.991 ± 0.019 |
| CACGAC | 2.02 ± 0.023 | 2.02 ± 0.032 |
| GACGAC | 1.956 ± 0.004 | 2.009 ± 0.018 |

| Variant | normalized RNA/DNA level without ligand (log10) ((6R,S)-folinic acid [1]) | normalized RNA/DNA level with ligand (log10) ((6R,S)-folinic acid [2]) |
| --- | --- | --- |
| CACGAG | 1.917 ± 0.0095 | 2.003 ± 0.007 |
| AACGAU | 1.959 ± 0.018 | 2 ± 0.035 |
| GACGCA | 2.005 ± 0.0025 | 2.01 ± 0.045 |
| UACGCA | 1.992 ± 0.013 | 2.03 ± 0.037 |
| CACGCC | 2.041 ± 0.011 | 1.99 ± 0.047 |
| UACGCC | 2.053 ± 0.0091 | 2.07 ± 0.022 |
| AACGCG | 1.909 ± 0.012 | 2.03 ± 0.026 |
| CACGCG | 2 ± 0.023 | 1.997 ± 0.0065 |
| GACGCG | 1.9961 ± 0.00035 | 2.032 ± 0.015 |
| UACGCG | 1.79 ± 0.03 | 1.98 ± 0.058 |
| CACGCU | 2.042 ± 0.0097 | 2.034 ± 0.011 |
| GACGCU | 2.05 ± 0.0071 | 2.03 ± 0.021 |
| UACGCU | 2.0313 ± 0.00036 | 2.043 ± 0.0085 |
| AACGGA | 1.969 ± 0.019 | 2.02 ± 0.028 |
| CACGGA | 1.99 ± 0.038 | 2.02 ± 0.029 |
| AACGGC | 2.058 ± 0.0083 | 2.03 ± 0.027 |
| CACGGC | 2.046 ± 0.014 | 2.03 ± 0.026 |
| GACGGC | 2.03 ± 0.016 | 2.04 ± 0.072 |
| UACGGC | 2.05 ± 0.0049 | 2.05 ± 0.063 |
| AACGGG | 1.892 ± 0.0076 | 2.01 ± 0.032 |
| CACGGG | 1.91 ± 0.0032 | 1.992 ± 0.0038 |
| AACGGU | 1.96 ± 0.022 | 2 ± 0.021 |
| CACGGU | 1.954 ± 0.0088 | 1.95 ± 0.04 |
| UACGUA | 1.918 ± 0.0029 | 1.98 ± 0.037 |

| Variant | normalized RNA/DNA level without ligand (log10) ((6R,S)-folinic acid [1]) | normalized RNA/DNA level with ligand (log10) ((6R,S)-folinic acid [2]) |
| --- | --- | --- |
| AACGUC | 2.066 ± 0.014 | 2.04 ± 0.021 |
| CACGUC | 2.023 ± 0.0096 | 1.987 ± 0.013 |
| GACGUC | 2.065 ± 0.0072 | 2.02 ± 0.054 |
| UACGUC | 2.07 ± 0.019 | 2.06 ± 0.066 |
| CACGUG | 2.03 ± 0.022 | 2.05 ± 0.05 |
| CACGUU | 2.0092 ± 0.00093 | 1.99 ± 0.038 |
| GACGUU | 2 ± 0.022 | 2.01 ± 0.045 |
| UACGUU | 1.971 ± 0.0048 | 1.997 ± 0.014 |
| AACUAA | 1.97 ± 0.023 | 1.96 ± 0.026 |
| CACUAA | 1.961 ± 0.01 | 2.0172 ± 0.0006 |
| GACUAA | 1.977 ± 0.008 | 1.98 ± 0.043 |
| UACUAA | 1.973 ± 0.0021 | 2.02 ± 0.0061 |
| CACUAC | 2.0166 ± 0.00023 | 2.01 ± 0.074 |
| UACUAC | 2.022 ± 0.0093 | 2.011 ± 0.0087 |
| CACUAG | 1.949 ± 0.01 | 2.02 ± 0.034 |
| AACUAG | 1.94 ± 0.022 | 2.02 ± 0.039 |
| UACUAG | 1.828 ± 0.016 | 1.99 ± 0.031 |
| CACUAU | 1.962 ± 0.0042 | 2.01 ± 0.03 |
| AACUAU | 1.975 ± 0.0066 | 2 ± 0.037 |
| CACUCA | 2.013 ± 0.0028 | 2.03 ± 0.025 |

— the supplement of paper PMC6757056
